Reference: US20220282217A1, “COMPOSITIONS AND METHODS FOR PREPARING T CELL COMPOSITIONS AND USES THEREOF” (priority 2019, published 2022)
Blank lines part the entries; values can stand above or below the binder they belong to.

Columns and labels:
Settings in all cases: remark: other sources report otherwise
HLA-A02.01 (human) [1] = experiment: pMHC-I complex dissociation at 37 C, 125I-b2m, half-life
HLA-A02.01 (human) [2] = experiment: competition vs radiolabeled reference peptide on purified MHC I, gel filtration
HLA-A24.02 (human) [3] = experiment: as above
HLA-A24.02 (human) [4] = experiment: pMHC-I complex dissociation at 37 C, 125I-b2m, half-life
HLA-A02.01 (human) [5] = experiment: competition with radiolabeled reference peptide, purified MHC I
HLA-A02.01 (human) [6] = experiment: pMHC-I dissociation half-life, 125I-b2m
HLA-B07.02 (human) [7] = experiment: competition vs radiolabeled reference peptide on purified MHC I, gel filtration
HLA-B07.02 (human) [8] = experiment: pMHC-I complex dissociation at 37 C, 125I-b2m, half-life
HLA-A24.02 (human) [9] = experiment: competition with radiolabeled reference peptide, purified MHC I
HLA-A24.02 (human) [10] = experiment: pMHC-I dissociation half-life, 125I-b2m
[11] = biological target: T1, HLA-A02.01 class I MHC molecule (prepared complex) (human); experiment: displacement of radiolabeled reference peptide from class I MHC, gel filtration; 'Affinity (nM)'
[12] = biological target: T1, HLA-A02.01 class I MHC molecule …; experiment: dissociation of peptide-MHC-I complex at 37 C, 125I-labelled b2m, scintillation
[13] = biological target: HLA-A24.02 class I MHC molecule (prepared complex) (human); experiment: as above
[14] = biological target: HLA class I molecule A02.01; experiment: pMHC-I dissociation half-life, 125I-b2m
[15] = biological target: HLA class I molecule B08.01; experiment: pMHC-I dissociation half-life, 125I-b2m
[16] = biological target: HLA class I molecule A02.01; experiment: competition with radiolabeled reference peptide on purified MHC I
[17] = biological target: HLA class I molecule A03.01; experiment: pMHC-I dissociation half-life, 125I-b2m
[18] = biological target: HLA class I molecule A03.01; experiment: competition with radiolabeled reference peptide on purified MHC I

IC50 (HLA-A02.01 (human) [2]): 1080 nM
IC50 (HLA-B07.02 (human) [7]): 17700 nM
Stability (T1/2 (h)) (HLA-A02.01 (human) [1]): 0 h
Stability (T1/2 (h)) (HLA-B07.02 (human) [8]): 0 h
B24: … (peptide)
peptide: MANGSLLNYL

IC50 (HLA-A02.01 (human) [2]): 175 nM
Stability (T1/2 (h)) (HLA-A02.01 (human) [1]): 9.4 h
B26: … (peptide)
peptide: SVCFFFFSV

IC50 (HLA-A02.01 (human) [2]): 5490 nM
IC50 (HLA-A24.02 (human) [3]): 4560 nM
Stability (T1/2 (h)) (HLA-A02.01 (human) [1]): 0 h
Stability (T1/2 (h)) (HLA-A24.02 (human) [4]): 0 h
B27: … (peptide)
peptide: VQLIMQLMPF

IC50 (HLA-A02.01 (human) [2]): 3510 nM
Stability (T1/2 (h)) (HLA-A02.01 (human) [1]): 0 h
B28: … (peptide)
peptide: LIMQLMPFG

IC50 (HLA-A02.01 (human) [2]): 8540 nM
Stability (T1/2 (h)) (HLA-A02.01 (human) [1]): 0 h
B29: … (peptide)
peptide: STVQLIMQL

IC50 (HLA-B07.02 (human) [7]): 2270 nM
Stability (T1/2 (h)) (HLA-A02.01 (human) [1]): 0.4 h
Stability (T1/2 (h)) (HLA-B07.02 (human) [8]): 0 h
B30: … (peptide)
peptide: MQLMPFGCL

Stability (T1/2 (h)) [14]: 5.1 h
Stability (T1/2 (h)) [17]: 0 h
IC50 [16]: 10 nM
IC50 [18]: 10500 nM
B31: … (peptide)
peptide: VLHECNSLYI

IC50 (HLA-A02.01 (human) [2]): 1610 nM
Stability (T1/2 (h)) (HLA-A02.01 (human) [1]): 0.4 h
B32: … (peptide)
peptide: IMQLMPFGC

Stability (T1/2 (h)) [14]: 0.6 h
Stability (T1/2 (h)) [15]: 0.4 h
Stability (T1/2 (h)) [17]: 0 h
IC50 [18]: 21100 nM
B33: … (peptide)
peptide: YMFLKAESKI

IC50 [16]: 604 nM
B34: … (peptide)
peptide: ALQPLQPHA

IC50 (HLA-A02.01 (human) [5]): 9610 nM
Stability (T1/2 (h)) (HLA-A02.01 (human) [6]): 0 h
B35: … (peptide)
peptide: NQRPILTII

Stability (T1/2 (h)) [14]: 2.9 h
Stability (T1/2 (h)) [17]: 0 h
IC50 [16]: 102 nM
IC50 [18]: 11200 nM
B36: … (peptide)
peptide: VMAGLGSPYV

IC50 (HLA-A02.01 (human) [5]): 1990 nM
Stability (T1/2 (h)) (HLA-A02.01 (human) [6]): 0 h
B37: … (peptide)
peptide: CMGSMNRRPI

IC50 (HLA-A02.01 (human) [2]): 4410 nM
Stability (T1/2 (h)) (HLA-A02.01 (human) [1]): 0 h
B38: … (peptide)
peptide: LTINKEEAL

Stability (T1/2 (h)) [14]: 10.8 h
Stability (T1/2 (h)) [15]: 0 h
B39: … (peptide)
peptide: FLLALWECSL

IC50 [16]: 174 nM
B40: … (peptide)
peptide: LIVSRTLLL

IC50 (HLA-A02.01 (human) [2]): 1250 nM
IC50 (HLA-B07.02 (human) [7]): 2650 nM
Stability (T1/2 (h)) (HLA-A02.01 (human) [1]): 1.2 h
Stability (T1/2 (h)) (HLA-B07.02 (human) [8]): 0 h
B41: … (peptide)
peptide: WLHKRGKYI

Measured Affinity (HLA-A02.01 (human) [5]): 977 nM
Measured stability (HLA-A02.01 (human) [6]): 0 h
B42: … (peptide)
peptide: LVVVGADGV

IC50 (HLA-A02.01 (human) [5]): 19 nM
IC50 (HLA-A24.02 (human) [9]): 52 nM
Stability (T1/2 (h)) (HLA-A02.01 (human) [6]): 0 h
Stability (T1/2 (h)) (HLA-A24.02 (human) [10]): 0 h
B43: … (peptide)
peptide: TQLARFFPI

IC50 (HLA-A02.01 (human) [5]): 14 nM
IC50 (HLA-A24.02 (human) [9]): 713 nM
Stability (T1/2 (h)) (HLA-A02.01 (human) [6]): 4 h
Stability (T1/2 (h)) (HLA-A24.02 (human) [10]): 0 h
B44: … (peptide)
peptide: WMTETLFDI

IC50 (HLA-A02.01 (human) [2]): 797 nM
IC50 (HLA-A24.02 (human) [3]): 444 nM
Stability (T1/2 (h)) (HLA-A02.01 (human) [1]): 0 h
Stability (T1/2 (h)) (HLA-A24.02 (human) [4]): 6.3 h
B45: … (peptide)
peptide: PLYGLLLEML

Stability (T1/2 (h)) [14]: 9.5 h
Stability (T1/2 (h)) [15]: 0 h
B46: … (peptide)
peptide: FLQEQYHEA

Further lines, the binder ahead of its results:

B1: … (peptide)
peptide: YTLDVLERC
Stability (T1/2 (h)) (HLA-A02.01 (human) [1]): 6.6 h

B2: … (peptide)
peptide: MQLMPFGCLL
IC50 (HLA-A02.01 (human) [2]): 20 nM
IC50 (HLA-A24.02 (human) [3]): 23600 nM
Stability (T1/2 (h)) (HLA-A02.01 (human) [1]): 0.4 h
Stability (T1/2 (h)) (HLA-A24.02 (human) [4]): 0 h

B3: … (peptide)
peptide: YMANGSLLN
IC50 (HLA-A02.01 (human) [2]): 4440 nM
Stability (T1/2 (h)) (HLA-A02.01 (human) [1]): 0 h

B4: … (peptide)
peptide: LVVVGACGV
Measured Affinity (HLA-A02.01 (human) [5]): 667 nM
Measured stability (HLA-A02.01 (human) [6]): 0.6 h

B5: … (peptide)
peptide: QLIMQLMPFG
IC50 (HLA-A02.01 (human) [2]): 5930 nM
Stability (T1/2 (h)) (HLA-A02.01 (human) [1]): 0 h

B6: … (peptide)
peptide: RVAKIADFGM
IC50 (HLA-A02.01 (human) [2]): 125 nM
IC50 (HLA-B07.02 (human) [7]): 9720 nM
Stability (T1/2 (h)) (HLA-A02.01 (human) [1]): 0.5 h
Stability (T1/2 (h)) (HLA-B07.02 (human) [8]): 0.2 h

B7: … (peptide)
peptide: SLLNYLREM
IC50 (HLA-A02.01 (human) [2]): 87 nM
IC50 (HLA-B07.02 (human) [7]): 1110 nM
Stability (T1/2 (h)) (HLA-A02.01 (human) [1]): 3 h
Stability (T1/2 (h)) (HLA-B07.02 (human) [8]): 0 h

B8: … (peptide)
peptide: CMGGMNWRPI
IC50 (HLA-A02.01 (human) [5]): 346 nM
IC50 (HLA-A24.02 (human) [9]): 4450 nM
Stability (T1/2 (h)) (HLA-A02.01 (human) [6]): 0.4 h
Stability (T1/2 (h)) (HLA-A24.02 (human) [10]): 0 h

B9: EGFR_T790M peptide … (peptide)
peptide: QLIMQLMPF
IC50 [11]: 193 nM
Stability (half-life (hr.)) [12]: 20.4 min
Stability (half-life (hr.)) [13]: 22.1 min

B10: … (peptide)
peptide: IMQLMPFGCL
IC50 (HLA-A02.01 (human) [2]): 837 nM
IC50 (HLA-A24.02 (human) [3]): 18100 nM
Stability (T1/2 (h)) (HLA-A02.01 (human) [1]): 0.5 h
Stability (T1/2 (h)) (HLA-A24.02 (human) [4]): 0 h

B11: … (peptide)
peptide: GMNWRPILTI
IC50 (HLA-A02.01 (human) [5]): 282 nM
Stability (T1/2 (h)) (HLA-A02.01 (human) [6]): 0.5 h

B12: … (peptide)
peptide: LQSLPRFILM
IC50 (HLA-A02.01 (human) [2]): 413 nM
Stability (T1/2 (h)) (HLA-A02.01 (human) [1]): 0 h

B13: … (peptide)
peptide: LVVVGAVGV
Measured stability (HLA-A02.01 (human) [6]): 0.6 h

B14: … (peptide)
peptide: FQNGKMALSA
Stability (T1/2 (h)) [14]: 0 h
Stability (T1/2 (h)) [15]: 0 h
IC50 [16]: 6160 nM

B15: … (peptide)
peptide: QLIMQLMPF
IC50 (HLA-A02.01 (human) [2]): 227 nM
Stability (T1/2 (h)) (HLA-A02.01 (human) [1]): 0.3 h
Stability (T1/2 (h)) (HLA-A24.02 (human) [4]): 0.4 h

B16: … (peptide)
peptide: FLPSTLKSL
IC50 (HLA-A24.02 (human) [3]): 995 nM
Stability (T1/2 (h)) (HLA-A24.02 (human) [4]): 1 h

B17: EGFR_T790M peptide … (peptide)
peptide: STVQLIMQL
IC50 [11]: 7260 nM
Stability (half-life (hr.)) [12]: 0 min

B18: … (peptide)
peptide: MALNSEALSV
IC50 (HLA-A02.01 (human) [5]): 129 nM
Stability (T1/2 (h)) (HLA-A02.01 (human) [6]): 0.7 h

B19: … (peptide)
peptide: SMNRRPILTI
IC50 (HLA-A02.01 (human) [5]): 1200 nM
IC50 (HLA-A24.02 (human) [9]): 16300 nM
Stability (T1/2 (h)) (HLA-A02.01 (human) [6]): 0.3 h
Stability (T1/2 (h)) (HLA-A24.02 (human) [10]): 0 h

B20: … (peptide)
peptide: MNWRPILTI
IC50 (HLA-A02.01 (human) [5]): 516 nM
IC50 (HLA-A24.02 (human) [9]): 6980 nM
Stability (T1/2 (h)) (HLA-A02.01 (human) [6]): 3.8 h
Stability (T1/2 (h)) (HLA-A24.02 (human) [10]): 0.2 h

B21: EGFR_T790M peptide … (peptide)
peptide: IMQLMPFGC
IC50 [11]: 1210 nM
Stability (half-life (hr.)) [12]: 22.2 min

B22: … (peptide)
peptide: SLPRFILMEL
IC50 (HLA-A02.01 (human) [2]): 26 nM
IC50 (HLA-B07.02 (human) [7]): 583 nM
IC50 (HLA-A24.02 (human) [3]): 2770 nM
Stability (T1/2 (h)) (HLA-A02.01 (human) [1]): 0.5 h
Stability (T1/2 (h)) (HLA-B07.02 (human) [8]): 0.4 h
Stability (T1/2 (h)) (HLA-A24.02 (human) [4]): 0.2 h

B23: EGFR_T790M peptide … (peptide)
peptide: LIMQLMPFG
IC50 [11]: 3340 nM
Stability (half-life (hr.)) [12]: 0 min

B25: EGFR_T790M peptide … (peptide)
peptide: QLIMQLMPFG
IC50 [11]: 5210 nM
Stability (half-life (hr.)) [12]: 0 min
